B1: Hammerhead Ribozyme (parent)
chain: ACCGGAUGUGCUUUCCGGUCUGAUGAGUCCGUGAGGACGAAACAG

Variants of: B1
Test: self-cleavage, relative activity (ratio to wild type); higher = more cleavage; co-transcriptional

Variant	self-cleavage
U9A C30U	1.07
U9A C30G	0.774
U9A C30A	1
G8U G17C	0.509
G8U G17A	0.652
G8U G17U	0.964
G8C U13G	1.19
G8C U13C	1.2
G8C U13A	1.41
U9A U32C	0.953
U9A U32A	0.964
U9A U32G	0.539
U9C C30A	0.902
U9C C30G	0.955
U9C C30U	0.709
G8C G18U	0.611
G8C G18A	0.509
G8C G18C	0.564
G8C U28G	1.05
G8C U28A	1.22
G8C U28C	1.16
U9A G36U	0.505
U9A G36A	0.621
U9A G36C	0.573

Variant	self-cleavage
G8U G22C	0.354
G8U G22A	0.37
G8U G22U	0.348
U9A G33C	0.808
U9A G33A	0.92
U9A G33U	0.908
G8U G36C	0.885
G8U G36A	0.658
G8U G36U	0.495
G8C U21G	0.432
G8C U21A	0.784
G8C U21C	0.611
G8U C38A	0.774
G8U C38G	0.887
G8U C38U	0.893
G8C G22C	0.339
G8C G22A	0.347
G8C G22U	0.341
G8C G25U	0.329
G8C G25C	0.242
G8C G25A	0.284
G8U	1.02
G8U U12C	1.35
G8U U12G	0.993

Variant	self-cleavage
G8U U12A	0.842
G8U G31A	1.23
G8U G31U	1.08
G8U G31C	1.18
U9A A23U	0.337
U9A A23C	0.46
U9A A23G	0.324
U9C C11U	0.889
U9C C11A	1.6
U9C C11G	0.944
U9C C38A	0.618
U9C C38U	1.1
U9C C38G	0.805
U9A A26C	0.532
U9A A26G	0.368
U9A A26U	0.865
G8C U9A	0.907
G8C U9G	0.771
G8C U9C	1.05
G8U U32A	0.996
G8U U32C	0.877
G8U U32G	0.859
U9A U19A	0.291
U9A U19C	0.535

Variant	self-cleavage
U9A U19G	0.398
U9A G39U	0.422
U9A G39C	0.288
U9A G39A	0.307
U9A C11A	1.19
U9A C11U	0.572
U9A C11G	1.57
G8U A23C	0.504
G8U A23U	0.324
G8U A23G	0.363
G8U C29G	0.847
G8U C29A	0.488
G8U C29U	1.01
U9A G35U	0.435
U9A G35A	0.751
U9A G35C	1.05
G8U U28A	0.966
G8U U28G	0.789
G8U U28C	1.23
U9A U14A	1.07
U9A U14C	0.73
U9A U14G	1
U9A A42G	0.218
U9A A42U	0.332

Variant	self-cleavage
U9A A42C	0.32
U9A G10A	1.38
U9A G10U	1.07
U9A G10C	1
G8U A40G	0.376
G8U A40C	0.566
G8U A40U	0.301
G8C G31U	0.679
G8C G31C	0.822
G8C G31A	1.06
U9A C20A	0.438
U9A C20U	0.557
U9A C20G	0.422
G8C G33A	1.11
G8C G33U	0.971
G8C G33C	0.867
U9C C43A	0.314
U9A A40U	0.367
U9A A40G	0.349
U9A A40C	0.49
G8C G39C	0.407
G8C G39A	0.347
G8C G39U	0.441
G8C G17A	0.663

Variant	self-cleavage
G8C G17C	0.397
G8C G17U	0.752
U9A G25A	0.345
U9A G25U	0.342
U9A G25C	0.311
U9C A40G	0.374
U9C A40U	0.406
U9C A40C	0.633
G8C G36U	0.772
G8C G36C	0.791
G8C G36A	0.652
U9C A41U	0.34
U9C A41G	0.356
U9C A41C	0.407
G8C U14G	1.11
G8C U14A	1.08
G8C U14C	0.785
G8U G10C	1.07
G8U G10A	1.47
G8U G10U	1.04
G8U G18A	0.684
G8U G18U	0.779
G8U G18C	0.513
U9A G18A	0.497

Variant	self-cleavage
U9A G18U	0.546
U9A G18C	0.39
U9A G17C	0.449
U9A G17U	0.565
U9A G17A	0.539
G8U U14C	1.06
G8U U14G	0.94
G8U U14A	1.15
G8U G35C	0.842
G8U G35U	0.616
G8U G35A	0.811
G8U U21C	0.819
G8U U21A	0.782
G8U U21G	0.571
G8U C11U	1.37
G8U C11G	1.21
G8U C11A	1.11
G8U G27C	0.794
G8U G27U	0.554
G8U G27A	0.922
U9C A42G	0.332
U9C A42C	0.351
U9C A42U	0.345

From the RNAGym collection of RNA variant scans (doi:10.7554/elife.80360)
